Results published in patent US9284369B2, “Inhibition of angiogenesis” (Genentech, Inc., priority 2007, dated 2016).

What was measured:
Bv8 protein levels = assay: In vivo G-CSF administration, Bv8 protein levels (ELISA); set-up: species or system mouse
Experimental: Eight weeks old Balb/c mice were subcutaneously injected with 10 μg recombinant human G-CSF (Neupogen, Amgen) daily for eight consecutive days. Control animals were given PBS. At the end of study, BM, whole blood and spleen samples were taken for analysis. One group of animals was maintained for two days after G-CSF discontinuation. Neutrophil count was done using an automated, high-resolution, flow cytometry-based hematology analyzer (CellDyn 3000). Serum and BM Bv8 levels were measured by ELISA.
MaxiSorp® 96-well microwell plates (Nalge Nunc International, Rochester, N.Y.) were coated with […] 3F1 antibody (a mouse anti-human BV8 antibody, which also binds to mouse Bv8 in 50 mM carbonate buffer, pH 9.6, at 4° C. overnight. Plates were washed with PBS containing 0.05% polysorbate 20 and blocked with 0.5% bovine serum albumin, 10 ppm Proclin 300™ (Supelco, Bellefonte, Pa.) in PBS at room temperature for 1 h. After plates were washed, mouse BV8 standards (0.039-2.50 ng/ml in 2-fold serial dilution, Genentech) and samples (minimum 1:10 dilution) in PBS containing 0.5% bovine serum albumin, 0.05% polysorbate 20, 10 ppm Proclin 300® (Supelco, Bellefonte, Pa.) and 0.35N NaCl (sample buffer) were added to the plates. The plates were incubated for 2 h at room temperature. Unbound antibody was removed by a wash step. Antibody bound to the plates was detected by adding biotinylated 4E10 antibody (a hamster anti-mouse BV8 antibody, Genentech) followed by streptavidin-HRP (GE Healthcare, Buckinghamshire, United Kingdom) and 3,3′,5,5′-tetramethyl benzidine (Kirkegaard & Perry Laboratories, Gaithersburg, Md.) as the substrate. The reaction was stopped by adding 1 M phosphoric acid. Absorbance was read at 450 nm on a Titertek™ stacker reader (ICN, Costa Mesa, Calif.). The titration curves of the standards were fit using a four-parameter regression curve-fitting program (Genentech). Data points which fell in the range of the standard curve were used for calculating the mouse BV8 concentrations in samples.

Bv8 expression = assay: Regulation of Bv8 gene expression in cultured mouse BMMNCs (Taqman); type: cell-based; conditions: for stimulation of Bv8 expression in CD11b+Gr1+ cells: 20 pg/ml G-CSF, 4 hrs
Experimental: RNA from tissues or cells was prepared using the RNeasy Mini Kit® (Qiagen). 50 ng total RNA per reaction was used for the real time PCR (Taqman™) analysis. For mouse/human Bv8 and EG-VEGF/Bv8 receptor 1 (PKR-1/EG-VEGFR1, R-1), testis RNA (BD Biosciences) served as control. For mouse/human EG-VEGF/Bv8 receptor 2 (PKR-2/EG-VEGFR2, R2), hypothalamus or whole brain (BD Biosciences) served as the control tissues. Reactions were run on 9600 Emulation mode of 7500 Real […] time PCR system (Applied Biosystems) and the absolute quantification with standard curve was used with Sequence Detection System (SDS) software. The expression level of each gene was further quantified against the house-keeping gene RPL19 in the same sample. To confirm the expression of VEGFR-1, VEGFR-2, EG-VEGF/Bv8 R1 and EG-VEGF/Bv8 R2 in the tumor-associated endothelial cells, standard RT-PCR was conducted using the Titan One Tube™ RT-PCR system (Roche) and the end products were checked on 2% agarose gel (Invitrogen) for the correct size. The sequence of Taqman™ primers are as follows: […]
Recombinant mouse MCP-1, MIP-1α, MIP-1β, MIP-2, bFGF, VEGF, GM-CSF, G-CSF, SDF-1 and TNFα were purchased from R&D Systems (Minneapolis, Minn.). Recombinant mouse KC, IFNγ, Bv8 (Prokineticin-2), IL-4, IL-10, IL-13, TGF-β were from PeproTech Inc. (Rocky Hill, N.J.). […] Conditioned media at 1:3 dilution were used (final FBS concentration was 0.17%). Data were normalized against total cell number. BM cells were flushed from mouse leg bones with DMEM containing 10% FBS. Cells were centrifuged at 1200 rpm for 5 min and resuspended in HBSS media containing 0.2% BSA (low endotoxin, Serologicals Corp. Norcross, Ga.). Two million cells were incubated in 24-well plates with various cytokines for 4 hr at 37° C. in a 5% CO2 incubator. Cells were then transferred in eppendorf tubes, centrifuged and lysed by RNA lysis buffer (Qiagen, Valencia, Calif.). Bv8 expression was assessed by Taqman™ with RPL19 (Ribosomal Protein L19) as the internal control gene. In some cases, CD11b+Gr1+ or CD11b−Gr1− BM cells were obtained using FACS sorting.

B1: G-CSF: recombinant granulocyte-CSF: mouse or human (R&D Systems) or human Neupogen (Amgen) (protein, chains of the INN, looked up)
chain: MTPLGPASSLPQSFLLKCLEQVRKIQGDGAALQEKLCATYKLCHPEELVLLGHSLGIPWAPLSSCPSQALQLAGCLSQLHSGLFLYQGLLQALEGISPELGPTLDTLQLDVADFATTIWQQMEELGMAPALQPTQGAMPAFASAFQRRAGGVLVASHLQSFLEVSYRVLRHLAQP
Q: What does the source list for B1?
A: increase of Bv8 levels in the BM above background (Bv8 protein levels; 24 hours after G-CSF administration): ~30 fold; serum Bv8 levels (Bv8 protein levels; after G-CSF administration): dramatically increased; Bv8 levels in kidney, brain and liver (Bv8 protein levels; data not shown): no effect; time for BM and serum Bv8 to return to near baseline after discontinuing G-CSF (Bv8 protein levels; mouse, in vivo): ≤ 48 h; stimulation of Bv8 expression in CD11b+Gr1+ cells (Bv8 expression; hypoxic conditions): ~10 fold; stimulation of Bv8 expression in CD11b+Gr1+ cells (Bv8 expression; normoxic conditions): ~5 fold; Bv8 up-regulation in purified CD11b+Gr1+ cells (Bv8 expression; 10 ng/ml, 4 hr): over 100 fold; up-regulation of Bv8 in unsorted BMMNCs (Bv8 expression; 10 ng/ml, 4 hr): > 27 fold
